From paper PMC6712278, “Mouse Gut Microbiome-Encoded β-Glucuronidases Identified Using Metagenome Analysis Guided by Protein Structure” (mSystems, 2019) come the findings set out here.

The subject of one series is T1, BoGUS L2.
T1 construct: gene GUS; GH2, loop 2 class
Description: p-nitrophenol release, absorbance […] nm, Michaelis-Menten fit. The class given is biochemical, Bacteroides ovatus. The following applies: 50 mM HEPES, 50 mM NaCl, pH 6.5, 37°C.

Series [1] has as its system O=C(O)[C@H]1O[C@@H](Oc2ccc([N+](=O)[O-])cc2)[C@H](O)[C@@H](O)[C@@H]1O. In words: purified protein. The following applies: 37°C, at the enzyme's optimal pH (not given).
Substrate in the series “purified protein”: O=C(O)[C@H]1O[C@@H](Oc2ccc([N+](=O)[O-])cc2)[C@H](O)[C@@H](O)[C@@H]1O
In words: purified protein. The following applies: 37°C, at the enzyme's optimal pH (not given). The class given is biochemical, Bacteroides uniformis.

Turning to `O=C(O)[C@H]1O[C@@H](Oc2ccc([N+](=O)[O-])cc2)[C@H](O)[C@@H](O)[C@@H]1O` [PNPG, p-nitrophenyl-glucuronide], the Km in the series on BoGUS L2 was 930 ± 70 µM.

On to “BfGUS mL1 (Bacteroides fragilis NCTC 9343)”, for which, in series [1], the Km worked out at 460 ± 60 µM and the kcat amounted to 23 ± 1 s⁻¹.

B1: BuGUS L2 (Bacteroides uniformis str. 3978 T3 ii) (protein)
chain: QRQTQTINDSWKFLKGECTAAADSAFDDSKWTSIHLPHTWNTDAYTEKDYYRGTGWYRRQLTLPQGWKEKQIILRLDAAGKSATIYINGKNVGEHAGGYTACSFNITPFLSFDTPNTLAVCVDNARQDIAPISGDFTFFGGIYRDVWLTAVPNQHFNLTNHGSDGLFISTPQVSEEQATLSIRGEVKNDAPEKATLELTHTIYRPDGTLLQTLKKNIQLKAGETYAFSNEATPVLKPELWTPETPRLYRVETTLRNRKTKTLLDQSNHYTAFRWFRFDGDEGFFLNGKPYKLRGICRHQDQKPIGPALTDEMHRRDFLLMKEMGANFIRISHYPQDDALLEMCDKLGMLAWEEIPIIDIVPNTPGYGDNCERNLREMIRQHYNHPSIITWGYMNEILLVTQRKYKTEAELKPVLERTLALANRLERVLKEEDSTRISTMAFHGSNSYNETGLSKITDIVGWNLYQGWYGGDLTGFEKFLAQQHQNHPTHPMIVSEYGAGSDKRLHSLHPRAFDFSIEYQQKYLEHYLPVLEDTPYICGGTHWNFIDFSSALRDESMPRINNKGLVYADRTPKDVYHYYQAAWRKDIPVLHIASRDWTDRAGVQQGNAPVYLPVKIYTNLSEVELFIDGISLGKQKTENYTATFEVPFSNRNPFLFAQGNYQGKTVQDGLRINFTPIPACLDANNLKGLELAVNVGSQCFFTSDESQLTWLPDQPYAAGSWGYIGGKEGTAQTEIQNTADGPLFQTLRNEIEGYRFDAPQGVYEIELLFTDIFRRNAGIAYQLDRNGQQENRESTFGISINGEVVEESLSPCKESGYFRALRKKYYITNDKEYIDIRFHSTSGTCFLNGIKLRNIY
notes: GH2, loop 2 class
As to B1, in the series “purified protein”, the Km is 520 ± 60 µM and the kcat was 24 ± 1 s⁻¹.

One may read the Km as the concentration of substrate that gives half-maximal velocity. By kcat is commonly meant the maximal rate divided by the concentration of active sites.
